Measured values published in US11033507B2, “Method of synthesis of silica vesicles and use thereof” (THE UNIVERSITY OF QUEENSLAND, priority 2013, dated 2021).

Experiments:
SCC25 cells = experiment: MTT cell toxicity, SCC25; assay type: cell-based, human
Method: SCC25 cells were seeded in a 96-well plate at a density of 2×10^4 cells per well and cultured in 5% CO2 at 37° C. for 24 h. Then, free RNase A, SVs, RNase A loaded SVs and corresponding denatured samples were added to the cells in DMEM medium at an RNase A dosage of 4-16 μg/ml, and the cells were incubated in 5% CO2 at 37° C. for 24 and 72 h. Subsequently, MTT reagent (10 μl/well volume from 5 mg/mI solution in PBS) was added to each well, shaken for 10 seconds and then incubated at 37° C. for 4 h. The precipitants were collected following centrifugation for the above cell toxicity experiments after the removal of the supernatant. Then DMSO (100 μl) was added to each well to dissolve the formazan crystals and the optical density (OD) was recorded at 570 nm using a microplate reader (SpectraMax M5, Bio-Strategy, Ltd). Cells incubated in the absence of SVs and RNase A were used as the control. All the experiments were performed in triplicate for each group.
Another series of control groups was prepared after heat and acid denaturation of RNase A, including both free RNase A and RNase A loaded SVs. In the denaturation process, 50 μl of HCl (0.01M, pH 2.0) solution was added in to 1 mg of free RNase A or 6-9 mg of SVs (loaded with 1 mg RNase A). The mixtures were incubated at 65° C. for 40 min, cooled and centrifuged. NaOH (0.01M) solution was added dropwise into the mixtures until the pH reached ˜7, indicated by precise pH paper and used as a denatured RNase A group in the present experiment.
The stability and activity of RNase A loaded in hydrophobic modified SV was further investigated with acid and heat treatment. In a treatment procedure, 50 μl 0.01 M HCl (pH 2) was added to ˜1 mg RNase A loaded in SV. The mixture was kept in 65° C. for 40 min, then neutralized with 0.01 M NaOH solution (pH 12) until the pH reached 7. The final RNase A concentration was then diluted to 0.5 mg/ml. Free RNase A was also treated accordingly as a control group. […]

HCT116 cells = experiment: Cell viability after acid and heat treatment, HCT116; assay type: cell-based; conditions: 24 to 72 h; samples acid and heat treated
RNase A = RNase A (Bos taurus, UniProt P61823); experiment: Thermal unfolding of RNase A by differential scanning calorimetry; assay type: physicochemical; conditions: 10 mM PBS, RNase A 0.5 mg/ml, heating rate 60° C./h
Method: The thermal unfolding of RNase A was measured by differential scanning calorimetry (DSC) in the range of 10−130° C. The DSC was carried out using a VP DSC microcalorimeter (MicroCal Company, USA) with a heating rate of 60° C./h. In a typical procedure, the RNase A/SV was suspended in 10 mM PBS solution with the RNase A concentration of 0.5 mg/ml. A reference suspension was also prepared using only SV the same concentration. The reference and sample suspension were injected in the corresponding cells for DSC measurements. The DSC curve of free RNase A was also obtained.

B1: free RNase A: ribonuclease A, model therapeutical protein (protein, UniProt P61823 27-150, looked up)
Ribonuclease pancreatic: KETAAAKFERQHMDSSTSAASSSNYCNQMMKSRNLTKDRCKPVNTFVHESLADVQAVCSQKNVACKNGQTNCYQSYSTMSITDCRETGSSKYPNCAYKTTQANKHIIVACEGNPYVPVHFDASV
cellular toxicity / inhibition of SCC25 cells (SCC25 cells; 24 to 72 h, samples acid and heat treated): no inhibition
cytotoxicity to SCC25 cells (SCC25 cells; free protein after denaturation): no cytotoxicity
cytotoxicity to SCC25 cells (SCC25 cells; free protein, not denatured): no cytotoxicity
cellular toxicity / inhibition of HCT116 cells (HCT116 cells): no inhibition
midpoint temperature for the RNase A thermal unfolding (Tm) (RNase A): 63.6 °C
